One assay relates to HB-EGF. Kind of assay: Measurement of soluble HB-EGF in tumor tissues by ELISA. The class given is in vivo, mouse. The conditions noted are these: HCT116 and HT29 tumors; aderbasib 60 mg/kg. How it is done:
Concentrations of AREG and HB-EGF in tumor tissues were measured using the Human Amphiregulin/AREG ELISA Kit PicoKine and HB-EGF ELISA Kit, following the manufacturer's instruction. Briefly, 100 μl of standard or tumor tissue homogenate (cleared by centrifugation) was added to a microtiter well pre-coated with anti-human AREG or anti-human HB-EGF and incubated for 2 h at RT. After washing the plate with washing buffer, 100 μl of biotinylated anti-human AREG or biotinylated anti-human HB-EGF were added to each well and incubated for 1.5 h at RT. The microtiter wells were washed 3 times with wash buffer and incubated with 100 μl/well of avidin-biotin-peroxidase complex for 40 min at RT. The microtiter wells were washed 5 times with wash buffer and incubated with 90 µl/well color developing reagent for 30 min at RT. After adding 100 μl of stop solution to each well, absorbance at 450 nm was recorded by a Synergy 2 Multi-Mode Microplate Reader.

A further assay deals with HT29 tumors. Kind of assay: Subcutaneous HT29 tumors in SCID mice. Particulars: sc HT29 tumors. The class given is in vivo, mouse. As to the method:
SCID mice (C.B.17 SCID) were bred by the Laboratory Animal Shared Resource at Roswell Park Comprehensive Cancer Center. Male mice at 7-8 weeks of age were used. All mouse experiments were approved by the Institutional Animal Care and Use Committee at Roswell Park Comprehensive Cancer Center under protocol 1022M. We established subcutaneous tumors by inoculating 1×10^6 HCT116 cells, 4×10^6 HT29 cells, or 2×10^6 SW48 cells to the flank of each mouse in 100 μl of serum free medium. Colon patient-derived xenograft (PDX) 14650 was established from a liver metastatic lesion in a patient treated at Roswell Park Comprehensive Cancer Center. Tumor fragments (˜20 mm^3) from donor mice were implanted into the flank of each mouse subcutaneously using a trocar. Orthotopic colon tumors in mice were established by inoculating HCT116 cells stably transfected with firefly luciferase (2×10^6 cells in 50 μl of 50% serum-free medium and 50% Matrigel) to the caecum wall of each mouse. Mice in each tumor model were randomized cage-wise into treatment groups using Research Randomizer (www.randomizer.org). Subcutaneous tumor volume was measured using length ×width^2÷2. Tumor volume was measured three times each week. Orthotopic tumor growth was monitored by bioluminescence weekly. Mice were given D-luciferin (150 mg/kg) by ip and anesthetized with isoflurane, and tumor burden was measured by bioluminescence using the IVIS Spectrum In Vivo Imaging System (PerkinElmer). Drug treatment was started when significant tumor growth was detected. EP (0.5 mg/kg) was administered to mice ip once daily. PEPD^G278D (4 mg/kg) was administered to mice ip thrice weekly (Monday, Wednesday, Friday). Aderbasib (60 mg/kg) was administered to mice by gavage once daily. 5-FU (35 mg/kg) was administered to mice ip twice weekly (Monday and Thursday). EP, PEPD^G278D and 5-FU were administered to mice in PBS. Aderbasib was first dissolved in DMSO and then diluted by PBS (final 5% DMSO by volume). […] The mice were closely monitored for sign of adverse effects and weighed three times each week. […]

The test system of assay [1] is EGFR-HER3, EGFR-IGF1R and EGFR-MET heterodimers. As to the kind of experiment: Immunoprecipitation and Western blotting of EGFR heterodimers. The class given is cell-based, human. Particulars: 25 nM, 48 h. How it is done: (§1) Protein concentrations in all samples were measured using the BCA Assay Kit. For Western blotting, each sample was mixed with 4× loading dye, heated for 5 min at 95° C., and resolved by SDS-PAGE (8-12.5%). Proteins were transferred to polyvinylidene fluoride membrane, probed with specific antibodies, and detected using either Luminata Classico (Millipore) or Luminata Cresendo (Millipore). For IP, cell lysates (0.5 mg protein/sample) were incubated with a desired antibody overnight at 4° C., followed by incubation of 500 μl sample with 30 μl G-Sepharose beads (2 mg/ml) for 1 h at RT. The beads were washed three times with IP buffer, suspended in 2× SDS loading buffer, boiled for 5 min, and analyzed by Western blotting.
In general terms: Immunoblotting shows a protein as a band on a membrane.

Assay [2] has as its system EGFR and HER2. Kind of assay: Western blotting of whole cell lysates: EGFR and HER2. The class given is cell-based, human. Particulars: 25 nM. As to the method:
(§2) To prepare whole cell lysates, cells were washed with PBS twice, mixed with 1× cell lysis buffer from Cell Signaling Technology supplemented with 2 mM PMSF and a protease inhibitor cocktail from Roche Applied Science, placed on ice for 10 min, sonicated at 0-4° C. to enhance cell lysis using a Branson Model 450 sonifier, and finally centrifuged at 13,000 g for 10 min at 4° C., and the supernatant fraction is collected as whole cell lysate. Tumor and samples were mixed with RIPA buffer (25 mM Tris-HCl, PH7.6, 150 mM NaCl, 1% Nonidet P-40, 1% sodium deoxycholate, and 0.1% SDS), which was supplemented with 2 mM PMSF, the protease inhibitor cocktail mentioned above, phosphatase inhibitor cocktail 2 and phosphatase inhibitor cocktail 3 from Sigma-Aldrich at 14.3 μl buffer per mg tissue, and homogenized in a Dounce homogenizer. The homogenates were cleared by centrifugation at 13,000 g for 15 min at 4° C.
as §1

Assay [3] addresses T1, EGFR and HER2 (Homo sapiens, UniProt P00533).
T1 construct: Both EGFR and HER2 were expressed in HCT116, HT29, and SW48 cells; endogenous in cells; host or cells: HCT116, HT29, SW48 (SW620 lacks both)
The assay is described as above. The class given is cell-based. Particulars: HCT116, HT29 and SW48 cells, medium with 10% serum, 25 nM. How it is done: as §2, §1

With `COC(=O)N1CC2(CC2)C[C@H](C(=O)NO)[C@H]1C(=O)N1CC=C(c2ccccc2)CC1` [aderbasib], the “soluble HB-EGF level in the tumor tissues” value with HB-EGF is “marked decrease”. Also, the tumor growth result with HT29 tumors (aderbasib alone 60 mg/kg by gavage daily) was “ineffective”.

B1: PEPD^G278D: recombinant and enzymatically inactive mutant of human peptidase D (PEPD), with replacement of glycine 278 by aspartic acid (protein)
chain: AAATGPSFWLGNETLKVPLALFALNRQRLCERLRKNPAVQAGSIVVLQGGEETQRYCTDTGVLFLQESFFHWAFGVTEPGCYGVIDVDTGKSTLFVPRLPASHATWMGKIHSKEHFKEKYAVDDVQYVDEIASVLTSQKPSVLLTLRGVNTDSGSVCREASFDGISKFEVNNTILHPEIVESRVFKTDMELEVLRYTNKISSEAHREVMKAVKVGMKEYGLESLFEHYCYSRGGMRHSSYTCICGSGENSAVLHYGHAGAPNDRTIQNGDMCLFDMDGEYYSVASDITCSFPRNGKFTADQKAVYEAVLLSSRAVMGAMKPGDWWPDIDRLADRIHLEELAHMGILSGSVDAMVQAHLGAVFMPHGLGHFLGIDVHDVGGYPEGVERIDEPGLRSLRTARHLQPGMVLTVEPGIYFIDHLLDEALADPARASFLNREVLQRFRGFGGVRIEEDVVVIDSGIELLTCVPRTVEEIEACMAGCDKAFTPFSGPK
modifications: left off: small tags and cut ends
In the case of B1, the “EGFR association with HER3, MET or IGF1R” value in assay [1] is “disruption of EGFR association”. Further, the HER2 level result with EGFR and HER2 [2] (HCT116, HT29 and SW48 cells, medium with 10% serum, 3 h) is “decreased markedly”. Moreover, the “expression and tyrosine phosphorylation of EGFR and HER2” value in the assay on EGFR and HER2 [2] (SW48, HCT116 and HT29 cells, 48 h) was “obliterated”. Moreover, the “EGFR and HER2 level” value in the assay with EGFR and HER2 [2] (serum-free medium, 3 h) is recorded as “marked decrease”. Also, the EGFR level entry is listed as “no decrease” with EGFR and HER2 [3] (6 h); “profound decrease” with EGFR and HER2 [3] (24 h). In addition, the tumor growth entry in the assay on HT29 tumors (EP plus PEPD^G278D 4 mg/kg ip three times weekly, or cetuximab 15 mg/kg ip twice weekly) is on record as “neither agent inhibited the growth”.

(Values after patent US20250009852A1, “DEPLETING EGFR AND HER2 OVERCOMES RESISTANCE TO EGFR INHIBITORS IN COLORECTAL CANCER” (Health Research, Inc., priority 2021, published 2025).)
